From publication PMC1851640

What was measured:
StpA (Escherichia coli) = target: T1, StpA (Escherichia coli) (UniProt P0ACG1); assay: filter binding
T1 sequence: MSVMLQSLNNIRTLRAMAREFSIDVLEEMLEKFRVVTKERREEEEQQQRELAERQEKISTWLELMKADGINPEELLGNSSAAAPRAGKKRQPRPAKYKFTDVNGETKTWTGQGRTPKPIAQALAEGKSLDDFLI

[1] = test system: G126V-StpA (Escherichia coli); assay: filter binding
StpA [2] = target: T2, StpA (Escherichia coli, UniProt P0ACG1 1-134); assay: filter binding
T2 sequence: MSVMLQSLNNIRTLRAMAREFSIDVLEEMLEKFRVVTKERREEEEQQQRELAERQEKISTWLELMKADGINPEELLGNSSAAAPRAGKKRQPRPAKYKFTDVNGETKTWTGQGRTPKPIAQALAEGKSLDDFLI

StpA [3] = target: T2, StpA; assay: filter binding; remark: listed apart in the source
StpA [4] = target: T2, StpA; assay: FRET

## td ribozyme RNA
StpA (Escherichia coli)
  binding signal: 70 % bound

## sho-sho tdC865U pre-mRNA
[1]
  binding signal: 7 % bound
StpA (Escherichia coli)
  binding signal: 27 % bound

## sho-sho td pre-mRNA
StpA (Escherichia coli)
  Kd: 730 nM
  binding signal: 17 % bound

## td mRNA (intronless)
StpA (Escherichia coli)
  Kd: 580 nM

B1: 21R+ (ssRNA)
RNA: AUGUGGAAAAUCUCUAGCAGU
StpA [2]
  binding result: binds

B2: 21R+/21R- duplex (dsRNA)
RNA 1: AUGUGGAAAAUCUCUAGCAGU
RNA 2: ACUGCUAGAGAUUUUCCACAU
StpA [3]
  binding result: no binding

B3: 21R+ and duplex- (non-complementary pair) (ssRNA)
RNA 1: AUGUGGAAAAUCUCUAGCAGU
RNA 2: CUUUCAUUGGUCGGUCUCUCC
StpA [4]
  binding result: binds
